In PMC5290283:

Biological target: C-terminal region of APC (APC-CT), FLAG-tagged
Assay: AlphaScreen
Settings: Donor: Gag MA-GST-biotin; acceptor: APC(CT)-FLAG; n=3; parent: est. 2.1; read off a plot

## Fyn(10)WT (wild-type protein of the AlphaScreen with MA HBR mutants) 6A2T: HBR segment […] -> […] (K>A; K>A; R>A; R>A; K>A; K>A; K>T; K>T, in segment order)
  response: 0.25 10^3 RLU

## Fyn(10)WT (wild-type protein of the AlphaScreen with MA HBR mutants) RKswitch: HBR segment […] -> […] (K>R; K>R; R>K; R>K; K>R; K>R; K>R; K>R, in segment order)
  response: 2.3 10^3 RLU
